What was measured:
[1] = biological target: squirrel monkey prokineticin receptor 2 (PKR2) (squirrel monkey); experiment: cell-based or functional assay
[2] = biological target: rhesus monkey prokineticin receptor 1 (PKR1) (rhesus monkey); experiment: cell-based or functional assay

Substance | calcium mobilization (aequorin luminescence) EC50 [1] [nM] | calcium mobilization (aequorin luminescence) EC50 [2] [nM]
recombinant human PK1 (from UniProt P58294 20-105) (ligand) | 10 | 
recombinant human PK2 (from UniProt Q9HC23 28-129) (ligand) |  | 10
